Data reported in paper PMC10307625, “Inhibiting membrane rupture with NINJ1 antibodies limits tissue injury” (Nature, 2023).

Biological target: the molecule itself
Experiment: SEC; purified Flag–NINJ1 alone on Superose 6 Increase 10/300 GL; 20 mM HEPES pH 7.5, 150 mM NaCl, 0.005% LMNG, 0.0005% CHS; peak at 8.5 ml retention volume

B1: N-terminally Flag-tagged mouse NINJ1 (natural protein, UniProt O70131 1-152, looked up)
chain: MESGTEEYELNGDLRPGSPGSPDALPPRWGLRNRPINVNHYANKKSAAESMLDIALLMANASQLKAVVEQGNDFAFFVPLVVLISISLVLQIGVGVLLIFLVKYDLNNPAKHAKLDFLNNLATGLVFIIVVVNIFITAFGVQKPVMDVAPRQ
notes: NINJ1 (ninjurin-1), mouse, expressed from pRK-Flag-mNINJ1; Membrane protein solubilised in 1% LMNG / 0.1% CHS; the oligomer size is heterogeneous and no copy number is told; also called Flag–NINJ1; recombinant NINJ1; source: Expi293F cells, transiently transfected, purified (anti-Flag M2 resin, Superose 6 SEC) in LMNG/CHS; not shown: FLAG, N-terminal, kept
  binding result: binds
